Target: Recombinant mouse IL-21 (mouse, UniProt Q9ES17 18-146)
Experiment: capture style ELISA, clone selection

binding result: binds
B1: Mouse surrogate anti-IL-21 antibody (antibody, IgG1, V domains shown)
VH: EVQLVESGGGLVKPGGSLKLSCAASGFTFNRYSMSWVRQSPEKRLEWVAEISVGGSYTQYVDIVTGRFTISRDNAKNTLYLEMSSLRSEDTAMYYCARLYYSGSGDSYYYAMDYWGQGTSVTVSS
VL: QTVLIQSPAIMSASPGEKVTMTCSASSSVSYMHWYQQKSGTSPKRWIYDTSKLASGVPARFSGSGSGTSYSLTISSMEAEDAATYYCQQWNSNPPTFGGGTKLEMK
notes: mIgG1/kappa isotype

Reference: patent publication US20170043014A1 (Novo Nordisk, published 2017)
